# Legend:
# Assay in all cases: cell-based or functional assay
# [1] = molecular target: T1, HLA-A2/MAGE-A4 peptide MHC (pMHC) complex on cells (human)
# [2] = molecular target: T1, HLA-A2/MAGE-A4 peptide MHC (pMHC) …; remark: listed apart in the source
# [3] = molecular target: T1, HLA-A2/MAGE-A4 peptide MHC (pMHC) …; remark: listed apart in the source
# [4] = molecular target: pfkA (human)
# [5] = molecular target: DPYSL3 (human)
# [6] = molecular target: gutQ (human)
# [7] = molecular target: UBE2V2 (human)
# [8] = molecular target: DPYSL4 (human)
# [9] = molecular target: PIGG (human)
# [10] = molecular target: CRMP1 (human)
# [11] = molecular target: BNRF1 (human)
# [12] = molecular target: EDC3 (human)
# [13] = molecular target: FBXO34 (human)
# [14] = molecular target: SLC45A1 (human)
# [15] = molecular target: KEAP1 (human)
# [16] = molecular target: UNC80 (human)
# [17] = molecular target: VPS13D (human)
# [18] = molecular target: MAGEB2 (human)
# [19] = molecular target: ARF1 (human)
# [20] = molecular target: ARF3 (human)
# [21] = molecular target: URB1 (human)
# [22] = molecular target: GAPDHS (human)
# [23] = molecular target: CCS (human)
# [24] = molecular target: KDM1A (human)
# [25] = molecular target: DYNC1H1 (human)
# [26] = molecular target: MTOR (human)
# [27] = molecular target: PKP1 (human)
# [28] = molecular target: HLA-A2 with peptide MAGB6 on T2 cells (human)
# [29] = molecular target: T9A (human)
# [30] = molecular target: V10A (human)
# [31] = molecular target: G1A (human)
# [32] = molecular target: V2A (human)
# [33] = molecular target: Y3A (human)
# [34] = molecular target: D4A (human)
# [35] = molecular target: G5A (human)
# [36] = molecular target: R6A (human)
# [37] = molecular target: E7A (human)
# [38] = molecular target: H8A (human)
# [39] = molecular target: T1, HLA-A2/MAGE-A4 peptide MHC (pMHC) …; remark: listed apart in the source
binder,measurement,setting,value
"Molecule A (bispecific antibody, V domains shown) VH 1: YVQLVESGGGLVKPGGSLRLSCAAPLPFTGLDMSWVRQAPGKGLEWVGSISPKGGSTYYNDNVLGRFTISRDNSKNTLYLQMNSLRAEDTAVYYCARDWGFFDLWGQGTLVTVSS VL 1: AIQMTQSPSSLSASVGDRVTITCRASQSISNYLAWYQQKPGKAPKLLIYDANAHENDVPSRFSGSGSGTDFTLTISSLQPEDFATYYCQQYSSHPYTFGQGTKLEIK VH 2: not shown VL 2: QAVVTQEPSLTVSPGGTVTLTCGSSTGAVTTSNYANWVQEKPGQAFRGLIGGTNKRAPGTPARFSGSLLGGKAALTLSGAQPEDEAEYYCALWYSNLWVFGGGTKLTVL","EC50 [pM] 24 h, T-cell mediated lysis of MAGE-A4 peptide pulsed T2 cells",[1],1.2 pM
same,"EC50 [pM], activation of Jurkat-NFAT reporter cells (luminescence, 6 h) with MAGE-A4 peptide pulsed T2 cells",[2],30.3 pM
same,"EC50 [pM], T-cell mediated lysis of A-375 cells, 24 h",[3],1210 pM
same,"EC50 [pM], T-cell mediated lysis of C-33A cells, 24 h",[3],225 pM
same,"EC50 [pM], T-cell mediated lysis of IM-9 cells, 24 h",[3],43.4 pM
same,"EC50 [pM], T-cell mediated lysis of NCI-H1755 cells, 24 h",[3],9.4 pM
same,"EC50 [pM], T-cell mediated lysis of NCI-H2023 cells, 24 h",[3],2090 pM
same,"EC50 [pM], T-cell mediated lysis of UMUC-3 cells, 24 h",[3],775 pM
same,"% of MAGE-A4 signal, Jurkat-NFAT",[4],0.58%
same,"% of MAGE-A4 signal, Jurkat-NFAT; grey (>2%)",[5],32.9%
same,"% of MAGE-A4 signal, Jurkat-NFAT",[6],0.64%
same,"% of MAGE-A4 signal, Jurkat-NFAT",[7],0.75%
same,"% of MAGE-A4 signal, Jurkat-NFAT",[8],1.68%
same,"% of MAGE-A4 signal, Jurkat-NFAT",[9],0.7%
same,"% of MAGE-A4 signal, Jurkat-NFAT",[10],1.74%
same,"% of MAGE-A4 signal, Jurkat-NFAT",[11],0.47%
same,"% of MAGE-A4 signal, Jurkat-NFAT",[12],0.9%
same,"% of MAGE-A4 signal, Jurkat-NFAT",[13],0.46%
same,"% of MAGE-A4 signal, Jurkat-NFAT",[14],0.39%
same,"% of MAGE-A4 signal, Jurkat-NFAT",[15],0.39%
same,"% of MAGE-A4 signal, Jurkat-NFAT",[16],0.48%
same,"% of MAGE-A4 signal, Jurkat-NFAT",[17],0.67%
same,"% of MAGE-A4 signal, Jurkat-NFAT",[18],0.83%
same,"% of MAGE-A4 signal, Jurkat-NFAT",[19],0.67%
same,"% of MAGE-A4 signal, Jurkat-NFAT",[20],0.92%
same,"% of MAGE-A4 signal, Jurkat-NFAT; grey (>2%)",[21],80.5%
same,"% of MAGE-A4 signal, Jurkat-NFAT",[22],0.91%
same,"% of MAGE-A4 signal, Jurkat-NFAT; grey (>2%)",[23],3.06%
same,"% of MAGE-A4 signal, Jurkat-NFAT",[24],0.5%
same,"% of MAGE-A4 signal, Jurkat-NFAT",[25],0.4%
same,"% of MAGE-A4 signal, Jurkat-NFAT",[26],0.41%
same,"% of MAGE-A4 signal, Jurkat-NFAT",[27],0.5%
same,"% of MAGE-A4 signal, Jurkat-NFAT; grey (>2%)",[28],22.4%
same,"EC50, Jurkat-NFAT activation",[29],0.0383 nM
same,"EC50, Jurkat-NFAT activation",[30],0.029 nM
same,"EC50, Jurkat-NFAT activation",[31],40.1 nM
same,"EC50, Jurkat-NFAT activation",[32],0.0184 nM
same,"EC50, Jurkat-NFAT activation",[33],5.27 nM
same,"EC50, Jurkat-NFAT activation",[34],51.6 nM
same,"EC50, Jurkat-NFAT activation",[35],0.0056 nM
same,"EC50, Jurkat-NFAT activation",[36],40.1 nM
same,"EC50, Jurkat-NFAT activation",[37],0.1 nM
same,"EC50, Jurkat-NFAT activation",[38],0.044 nM
same,"EC50, Jurkat-NFAT activation",[39],0.0105 nM
"Molecule C (bispecific antibody, V domains shown) VH 1: TQQLVESGGGLVQPGGSLRLSCAASGFSFSFDTMSWVRQAPGKGLEWVGSISPSGGSTYYNDNVLGRFTISRDNSKNTLYLQMNSLRAEDTAVYYCARDHGYFDMWGQGTLVTVSS VL 1: DIQMTQSPSSLSASVGDRVTITCRASQSISSYLAWYQQKPGKAPKLLIYDASWLELGVPSRFSGSGSGTDFTLTISSLQPEDFATYYCQQYSSYPYTFGQGTKLEIK VH 2: not shown VL 2: QAVVTQEPSLTVSPGGTVTLTCGSSTGAVTTSNYANWVQEKPGQAFRGLIGGTNKRAPGTPARFSGSLLGGKAALTLSGAQPEDEAEYYCALWYSNLWVFGGGTKLTVL","EC50 [pM] 24 h, T-cell mediated lysis of MAGE-A4 peptide pulsed T2 cells",[1],121 pM
same,"EC50 [pM], activation of Jurkat-NFAT reporter cells (luminescence, 6 h) with MAGE-A4 peptide pulsed T2 cells",[2],976 pM
same,"EC50 [pM], T-cell mediated lysis of IM-9 cells, 24 h",[3],2740 pM
same,"EC50 [pM], T-cell mediated lysis of NCI-H1755 cells, 24 h",[3],460 pM
same,"% of MAGE-A4 signal, Jurkat-NFAT",[4],0.4%
same,"% of MAGE-A4 signal, Jurkat-NFAT",[5],0.35%
same,"% of MAGE-A4 signal, Jurkat-NFAT",[6],0.36%
same,"% of MAGE-A4 signal, Jurkat-NFAT",[7],0.52%
same,"% of MAGE-A4 signal, Jurkat-NFAT",[8],0.27%
same,"% of MAGE-A4 signal, Jurkat-NFAT",[9],0.33%
same,"% of MAGE-A4 signal, Jurkat-NFAT",[10],0.29%
same,"% of MAGE-A4 signal, Jurkat-NFAT",[11],0.36%
same,"% of MAGE-A4 signal, Jurkat-NFAT",[12],0.48%
same,"% of MAGE-A4 signal, Jurkat-NFAT",[13],0.39%
same,"% of MAGE-A4 signal, Jurkat-NFAT",[14],0.22%
same,"% of MAGE-A4 signal, Jurkat-NFAT",[15],0.51%
same,"% of MAGE-A4 signal, Jurkat-NFAT",[16],0.43%
same,"% of MAGE-A4 signal, Jurkat-NFAT",[17],0.39%
same,"% of MAGE-A4 signal, Jurkat-NFAT",[18],0.34%
same,"% of MAGE-A4 signal, Jurkat-NFAT",[19],0.23%
same,"% of MAGE-A4 signal, Jurkat-NFAT",[20],0.49%
same,"% of MAGE-A4 signal, Jurkat-NFAT",[21],0.45%
same,"% of MAGE-A4 signal, Jurkat-NFAT",[22],0.37%
same,"% of MAGE-A4 signal, Jurkat-NFAT",[23],0.29%
same,"% of MAGE-A4 signal, Jurkat-NFAT",[24],0.24%
same,"% of MAGE-A4 signal, Jurkat-NFAT",[25],0.17%
same,"% of MAGE-A4 signal, Jurkat-NFAT",[26],0.26%
same,"% of MAGE-A4 signal, Jurkat-NFAT",[27],0.49%
same,"EC50, Jurkat-NFAT activation",[29],0.67 nM
same,"EC50, Jurkat-NFAT activation",[30],13 nM
same,"EC50, Jurkat-NFAT activation",[31],1.44 nM
same,"EC50, Jurkat-NFAT activation",[32],0.687 nM
same,"EC50, Jurkat-NFAT activation",[33],0.626 nM
same,"EC50, Jurkat-NFAT activation",[34],0.738 nM
same,"EC50, Jurkat-NFAT activation",[35],16.8 nM
same,"EC50, Jurkat-NFAT activation",[36],4.34 nM
same,"EC50, Jurkat-NFAT activation",[37],1.22 nM
same,"EC50, Jurkat-NFAT activation",[38],3.94 nM
same,"EC50, Jurkat-NFAT activation",[39],1.03 nM

# Reference: patent US20260098095A1 (Hoffmann-La Roche, published 2026)
